From US6429014B1, “Monoterpene synthases from grand fir (Abies grandis)” (Washington State University Research Foundation, priority 1997, dated 2002)

Assays:
[1] = Monoterpene synthase assay and product identification with extracts of E. coli expressing Grand fir cDNA clones (Example 3); format: biochemical
Experimental: For expression, bacterial strains E. coil XLOLR/pAG3.18, E. coil XLOLR/pAG3.48, E. coli XL1-Blue/pGAG2.2, E. coli XL1-Blue/pGAG3.18, and E. coil BL21(DE3)/pSBAG10were grown to A600=0.5 at 37° C. in 5 ml of LB medium (Sambrock, J., Fritsch, E. F., and Maniatis, T. (1989) Molecular Cloning: A Laboratory Manual, 2d Ed., Cold Spring Harbor Laboratory, Cold Spring Harbor, N.Y.) supplemented with 100 μg ampicillin/ml or 30 μg kanamycin/ml as determined by the vector. Cultures were then induced by addition of 1 mM isopropyl-1-thio-β-D-galactopyranoside and grown for another 12 h at 20° C. Cells were harvested by centrifugation (2000×g, 10 min) and resuspended in either 1 ml monoterpene synthase assay buffer [50 mM Tris/HCl (pH 7.5), 500 mM KCl, 1 mM MnCl2, 5 mM dithiothreitol, 0.05% (w/v) NaHSO3 and 10% (v/v) glycerol], 1 ml sesquiterpene synthase assay buffer [10 mM dibasic potassium phosphate, 1.8 mM monobasic potassium phosphate (pH 7.3), 140 mM NaCl, 10 mM MgCl2, 5 mM dithiothreitol, 0.05% (w/v) NaHSO3 and 10% (v/v) glycerol], or 1 ml diterpene synthase assay buffer [30 mM Hepes (N-2-hydroxyethylpiperazine-N-′2-ethanesulfonic acid, pH 7.2), 7.5 mM MgCl2, 5 mM dithiothreitol, 10 µM MnCl2, 0.05% (w/v) NaHSO3 and 10% (v/v) glycerol].
Cells were disrupted by sonication (Braun-Sonic 2000 with microprobe at maximum power for 15 seconds at 0-4° C.), the homogenates were cleared by centrifugation (18,000×g, 10 min), and 1 ml of the resulting supernatant was assayed for monoterpene synthase activity with 2.5 μM of [1-^3H]geranyl diphosphate, for sesquiterpene synthase activity with 3.5 μM [1-^3H]farnesyl diphosphate, or for diterpene synthase activity with 5 μM [1- ^3H]geranylgeranyl diphosphate following standard protocols (Croteau, R., and Cane, D. E. (1985) Methods Enzymol. 110:383-405; LaFever, R. E., Stofer Vogel, B., and Croteau, R. (1994) Arch. Biochem. Biophys. 313:139-149; Dehal, S. S., and Croteau, R. (1988) Arch. Biochem. Biophys. 261:346-356). In the case of the monoterpene synthase and sesquiterpene synthase assays, the incubation mixture was overlaid with 1 ml pentane to trap volatile products. In all cases, after incubation at 31° C. for 2 h, the reaction mixture was extracted with pentane (3×1 ml) and the combined extract was passed through a 1.5 ml column of anhydrous MgSO4 and silica gel (Mallinckrodt 60 Å) to provide the terpene hydrocarbon fraction free of oxygenated metabolites. The columns were subsequently eluted with 3×1 ml of ether to collect any oxygenated products, and an aliquot of each fraction was taken for liquid scintillation counting to determine conversion rate.
Product Identification—To obtain sufficient product for analysis by radio-GLC (gas liquid chromatography), chiral capillary GLC and GLC-MS (mass spectrum/spectrometry), preparative-scale enzyme incubations were carried out. Thus, the enzyme was prepared from 50 ml of cultured bacterial cells by extraction with 3 ml of assay buffer as above, and the extracts were incubated with excess substrate overnight at 31° C. The hydrocarbon fraction was isolated by elution through MgSO4-silica gel as before, and the pentane eluate was concentrated for evaluation by capillary radio-GLC as described (Croteau, R., and Satterwhite, D. M. (1990) J. Chromatogr. 500:349-354), by chiral column capillary GLC (Lewinsohn, E., Savage, T. J., Gijzen, M., and Croteau, R. (1993) Phytochem. Anal. 4:220-225), and by combined GLC-MS [Hewlett-Packard 6890 GC-MSD with cool (40° C.) on-column injection, detection via electron impact ionization (70 eV), He carrier at 0.7 psi., column:0.25 mm i.d.×30 m fused silica with 0.25 μm film of 5MS (Hewlett-Packard) programmed from 35° C. (5 min hold) to 230° C. at 5° C./min].

[2] = Terpene synthase assay and GC-MS / chiral GC product identification of recombinant enzymes expressed from pSBET in E. coli BL21(DE3) (Example 11); format: biochemical; details: extracts of induced cells
Experimental: For functional expression, bacterial strains E. coli BL21(DE3)/pSAG2(M), E. coli BL21(DE3)/pSAG2(R), E. coli BL21(DE3)/pSAG3(R), E. coli BL21(DE3)/pSAG6(M), E. coli BL21(DE3/pSAG6(R), E. coli BL21(DE3)/pSAG8(M), E. coli BL21(DE3)/pSAG9(M), E. coli BL21(DE3)/pSAG11(M) and E. coli BL21(DE3)/SAG11(R) were grown to A600=0.5 at 37° C. in 5 ml of Luria-Bertani medium (Sambrook, J., Fritsch, E. F., and Maniatis, T. (1989) Molecular Cloning: A Laboratory Manual, 2nd Ed., pp. 7.20-7.43, Cold Spring Harbor, N.Y.) supplemented with 30 μg kanamycin/ml. Cultures were then induced by addition of 1 mM isopropyl-1-thio-β-D-galactopyranoside and grown for another 12 h at 20° C. Cells were harvested by centrifugation and disrupted by sonication followed by centrifugation, and the resulting soluble enzyme preparations were assayed for monoterpene, sesquiterpene and diterpene synthase activity using the appropriate radiolabeled substrate as described previously (Bohlmann, J., Steele, C. L., and Croteau, R. (1997) J. Biol. Chem. 272, 21784-21792). This assay involves the isolation and separation of terpene olefins and oxygenated terpenes by column chromatography on silica, followed by scintillation counting to determine conversion rate. GC-MS analysis is employed for product identification, by comparison of retention times and mass spectra to those of authentic standards (Bohlmann, J., Steele, C. L., and Croteau, R. (1997) J. Biol Chem. 272, 21784-21792); assignment of absolute configuration is based upon chiral column capillary GC and matching of retention time to that of the corresponding enantiomer (Lewinsohn, E., Savage, T. J., Gijzen, M., and Croteau, R. (1993) Phytochem. Anal. 4, 220-225). To insure production of sufficient material for identification, the standard assay (Bohlmann, J., Steele, C. L., and Croteau, R. (1997) J. Biol. Chem. 272, 21784-21792) was scaled up by a factor of 20.
Initially, the four pSBET plasmids pSAG6(M), pSAG8(M), pSAG9(M) and pSAG11(M), containing the full-length cDNA inserts of ag6 (SEQ ID NO:64), ag8 (SEQ ID NO:66), ag9 (SEQ ID NO:77) and ag11 (SEQ ID NO:68), respectively, were expressed in E. coli BL21(DE3). Extracts of the induced, transformed bacterial cells were assayed for monoterpene, sesquiterpene and diterpene synthase activity using the corresponding labeled C10, C15 and C20 prenyl diphosphate substrates (Bohlmann, J., Steele, C. L., and Croteau, R. (1997) J. Biol. Chem. 272, 21784-21792). […] Since it is known that the relatively large amino-terminal transit peptide of plant terpene synthases can impair expression of the functional preprotein in E. coli and promote the formation of intractable inclusion bodies (Williams, D. C., McGarvey, D. J., Katahira, E. J., and Croteau, R. (1998) Biochemisiry 37, 12213-12220), the“pseudomature” forms of ag6 (SEQ ID NO:64) and ag11 (SEQ ID NO:68) were prepared by truncation of the cDNAs to insert a starting methionine immediately upstream of their tandem arginine elements (R59R 60 for ag6 (SEQ ID NO:64), R^71R^72 for ag11 (SEQ ID NO:68)) for expression in E. coli BL21(DE3)/pSAG6(R) and E. coli BL21(DE3)/pSAG11(R). Similar truncations of previously characterized ag2.2 (SEQ ID NO:1) (myrcene synthase, R^64R^65) and ag3.18 (SEQ ID NO:3) ((−)-pinene synthase, (SEQ ID NO:5) R^64R^65) (Bohlmann, J., Steele, C. L., and Croteau, R. (1997) J. Biol. Chem. 272, 21784-21792) were prepared for expression from pSBET as controls for the possible alteration of product yield and distribution resulting from truncation.
Monoterpenes generated at preparative scale from geranyl diphosphate by the recombinant enzymes encoded by ag6 (SEQ ID NO:64), ag8 (SEQ ID NO:66), ag9 (SEQ ID NO:77) and ag11 (SEQ ID NO:68) were analyzed by GC-MS and chiral phase (β-cyclodextrin) capillary GC, and identified by comparison of retention times and mass spectra to authentic standards (FIGS. 6-9). […] The enzyme encoded by ag6 (SEQ ID NO:65) is therefore designated as (−)-1S,4R-camphene synthase. […]

B1: AG2.2: recombinant myrcene synthase from Grand fir encoded by cDNA clone AG2.2 (SEQ ID NO:1; protein SEQ ID NO:2) (protein, listed as Abies grandis)
chain: MALVSISPLASKSCLRKSLISSIHEHKPPYRTIPNLGMRRRGKSVTPSMSISLATAAPDDGVQRRIGDYHSNIWDDDFIQSLSTPYGEPSYQERAERLIVEVKKIFNSMYLDDGRLMSSFNDLMQRLWIVDSVERLGIARHFKNEITSALDYVFRYWEENGIGCGRDSIVTDLNSTALGFRTLRLHGYTVSPEVLKAFQDQNGQFVCSPGQTEGEIRSVLNLYRASLIAFPGEKVMEEAEIFSTRYLKEALQKIPVSALSQEIKFVMEYGWHTNLPRLEARNYIDTLEKDTSAWLNKNAGKKLLELAKLEFNIFNSLQQKELQYLLRWWKESDLPKLTFARHRHVEFYTLASCIAIDPKHSAFRLGFAKMCHLVTVLDDIYDTFGTIDELELFTSAIKRWNSSEIEHLPEYMKCVYMVVFETVNELTREAEKTQGRNTLNYVRKAWEAYFDSYMEEAKWISNGYLPMFEEYHENGKVSSAYRVATLQPILTLNAWLPDYILKGIDFPSRFNDLASSFLRLRGDTRCYKADRDRGEEASCISCYMKDNPGSTEEDALNHINAMVNDIIKELNWELLRSNDNIPMLAKKHAFDITRALHHLYIYRDGFSVANKETKKLVMETLLESMLF
prenyl diphosphate substrate utilized (geranyl, farnesyl, geranylgeranyl diphosphate tested) ([1]; cell-free extract of induced E. coli, tritium labeled substrates): only with geranyl diphosphate as substrate | monoterpene products formed from geranyl diphosphate ([1]; radio-GLC, GLC-MS, chiral GLC): the only product was shown to be myrcene | terpene synthase activity on expression from pSBET in E. coli BL21(DE3) [2]: high level expression of activity
